Here are results for one molecule from paper PMC6131548.

In general, Kd refers to the constant that tells how readily two partners part at equilibrium. Higher therefore signals a looser complex. What is called stoichiometry N is the number of molecules, sites or subunits per partner or assembly.

This experiment addresses Tsr2 (in the ITC with yeast ESS2) (S. cerevisiae (yeast)) (UniProt Q06672). Briefly: ITC; VP-ITC; 20–40 µM Tsr2 variant in the cell, 400–800 µM ESS2 peptide in the syringe; 25 °C, 20 mM NaPi pH 7.1, 1 mM DTT, 10 µM EDTA.

Molecule RPRFNRENKVSPADAAKKAL [ESS2 peptide] yielded a Kd of 700 nM and a stoichiometry N of 1.
